Seven molecules from patent publication US20070066551, “Aptamer medicinal chemistry” (published 2007) can be followed below.

Conditions in all cases: label: 5'-32P
Series [1] addresses T1, von Willebrand Factor (vWF) (UniProt P04275 P04275:764-2813). Put plainly: filter; DPBS with Ca/Mg, 0.1 mg/mL BSA, 24 C.
Series [2] has as its target T2, IL-23 (full length) (Homo sapiens, UniProt Q9NPF7;P29460 Q9NPF7:20-189,P29460:23-328). Put plainly: filter; PBS without Ca/Mg, 0.1 mg/mL BSA, RT 30 min; 13 nM in DPBS with Ca/Mg (Table 5). The source says:
(§1) A three-layer filtration medium was used, consisting (from bottom to top) of Protran nitrocellulose (Schleicher & Schuell), Hybond-P nylon (Amersham Biosciences) and GB002 gel blot paper (Schleicher & Schuell). RNA that is bound to protein is captured on the nitrocellulose filter, whereas the non-protein bound RNA is captured on the nylon filter. The gel blot paper was included simply as a supporting medium for the other filters. Following filtration, the filter layers were separated, dried and exposed on a phosphor screen (Amersham Biosciences, Piscataway, N.J.) and quantified using a Storm 860 Phosphorimager® blot imaging system (Amersham Biosciences).
A set of ARC979 (SEQ ID NO 1) derivative aptamers introducing single phosphorothioate substitutions (Glen Research, Sterling, Va.) were chemically synthesized by standard synthesis techniques. In each set of derivatives, single phosphorothioate substitutions were systematically introduced at each internucleotide linkage position resulting in each derivative within one set having an aptamer with a phosphorothioate substitution at a different internucleotide position. These derivatives were gel purified and assayed for IL-23 binding, using the dot blot assay described above under the following binding reaction conditions: 1×PBS (without Ca⁺⁺ or Mg⁺⁺) plus 0.1 mg/mL BSA, for a 30 minute incubation at room temperature. […]

For series [3], the target named is T2, IL-23 (full length). In words: filter; DPBS with Ca/Mg, BSA, RT; parent 3.7 nM.
Text: as §1
The dot blot binding assay previously described was used to characterize the relative potency of the majority of the aptamers synthesized as compared to the parent molecule, ARC1386. […] KD values were calculated by fitting the equation y=(max/(1+K/protein))+yint using KaleidaGraph (KaleidaGraph v. 3.51, Synergy Software).

In series [4] the target is T1, von Willebrand Factor (vWF). In words: filter; DPBS with Ca/Mg, 0.1 mg/mL BSA, 24 C.
Text: as §1
A set of ARC1172 (SEQ ID NO 3) derivative aptamers introducing single phosphorothioate substitutions (Glen Research, Sterling, Va.) were chemically synthesized using standard synthesis techniques. In each set of derivatives, single phosphorothioate substitutions were systematically introduced at each internucleotide linkage position resulting in each derivative set having an aptamer with a phosphorothioate substitution at a different internucleotide position. […] KD values for the ARC1172 derivative aptamers were calculated by fitting the equation y=(max/(1+K/protein))+yint using KaleidaGraph (KaleidaGraph v. 3.51, Synergy Software).
The source holds these as a separate data set.

One may read the Kd as the free concentration of one partner at which half of the binding sites on the other are occupied at equilibrium, for simple one-to-one binding.

T2 sequence (Q9NPF7 20-189, chain 1 of 2): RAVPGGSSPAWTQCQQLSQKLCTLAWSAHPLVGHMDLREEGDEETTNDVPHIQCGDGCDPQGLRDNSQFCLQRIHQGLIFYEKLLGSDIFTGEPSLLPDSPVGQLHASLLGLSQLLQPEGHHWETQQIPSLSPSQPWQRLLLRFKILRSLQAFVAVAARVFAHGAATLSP
T2 sequence (P29460 23-328, chain 2 of 2): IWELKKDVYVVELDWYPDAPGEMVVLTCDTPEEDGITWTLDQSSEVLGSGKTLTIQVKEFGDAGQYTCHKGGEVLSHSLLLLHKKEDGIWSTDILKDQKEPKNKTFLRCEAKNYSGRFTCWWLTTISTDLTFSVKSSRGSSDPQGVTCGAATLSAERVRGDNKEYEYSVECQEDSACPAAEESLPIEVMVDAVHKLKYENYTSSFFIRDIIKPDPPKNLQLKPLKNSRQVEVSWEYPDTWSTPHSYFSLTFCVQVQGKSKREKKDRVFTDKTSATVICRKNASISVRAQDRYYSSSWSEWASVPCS

Regarding GCGUGCAGUGCCUUCGGCCGTGCGGTGCCUCCGUCACGC (mixed, multiple 2'-OMe substitutions as in Table 3; 3'-idT (last t of SEQ)) [ARC1361], in series [1], the Kd stood at 7.9 nM.

B1: ARC1368 (mixed)
mixed: GCGUGCAGUGCCUUCGGCCGTGCGGTGCCUCCGUCACGC
modifications: as ARC1361 plus PS between 20 and 21 (as printed, mG-s-T); 3'-idT (last t of SEQ)
In series [1], B1 registered a Kd of 1.8 nM. Molecule ACAGGCAAGUAAUUGGGGAGUGCGGGCGGGGUGU (mixed, 2'-deoxy purines, 2'-OMe pyrimidines (dRmY)) [ARC979] registered a Kd in the series with IL-23 (full length) [2] of 90 nM. For ACAGGCAAGTAAUUGGGGAGUGCGGGCGGGGUGU (mixed, dRmY; 2'-deoxy dihydrouridine at 10; 3'-idT (last t of SEQ)) [ARC1709], the Kd with IL-23 (full length) [3] was 2.8 nM. Same read-out and setting: the value for ACAGGCAAGUAAUUGGGGAGUGCGGGCGGGGTGU (mixed, dRmY; 2'-deoxy dihydrouridine at 32; 3'-idT (last t of SEQ)) [ARC1713] was 2.2 nM. For the molecule GGCGTGCAGTGCCTTCGGCCGTGCGGTGCCTCCGTCACGCC (ssDNA, 3'-idT (last t of SEQ)) [ARC1172 w/3T], in series [4], the Kd came out at 2 nM.

As for GGCGTGCAGTGCCTTCGGCCGTGCGGTGCCTCCGTCACGCC (ssDNA, 3'-idT as printed in Table 3) [ARC1172], the Kd in series [1] stood at 2 nM.
